In article PMC7367873, “Dissecting the sequence determinants for dephosphorylation by the catalytic subunits of phosphatases PP1 and PP2A” (Nature Communications, 2020):

Legend:
[1] = test system: GFP-14-3-3β and its binding proteins; assay: GFP-14-3-3β co-IP with LC-MS/MS label-free quantification, untreated versus PP1c-treated; design: species or system human
GFP-14-3-3β = GFP-14-3-3β co-IP with LC-MS/MS, untreated GFP-14-3-3β versus GFP control (14-3-3 interactome); format: binding, human
[2] = PP1 vs untreated, LFQ intensities, replicates 1-3
[3] = untreated vs GFP, LFQ intensities, replicates 1-3

Row | Molecule | Difference (log2), PP1 vs untreated [1, 2] [log2] | Difference (log2), PP1 vs untreated ([1]; log2 difference, pairwise comparison PP1 vs untreated, label-free quantification, 3 replicates each) | Difference (log2), untreated vs GFP (GFP-14-3-3β; [3]) [log2] | Difference (log2), untreated vs GFP (GFP-14-3-3β; log2 difference, pairwise comparison untreated vs GFP, label-free quantification, 3 replicates each)
1 | HNRNPA0 (protein, UniProt Q13151 1-305, looked up) Heterogeneous nuclear …: MENSQLCKLFIGGLNVQTSESGLRGHFEAFGTLTDCVVVVNPQTKRSRCFGFVTYSNVEEADAAMAASPHAVDGNTVELKRAVSREDSARPGAHAKVKKLFVGGLKGDVAEGDLIEHFSQFGTVEKAEIIADKQSGKKRGFGFVYFQNHDAADKAAVVKFHPIQGHRVEVKKAVPKEDIYSGGGGGGSRSSRGGRGGRGRGGGRDQNGLSKGGGGGYNSYGGYGGGGGGGYNAYGGGGGGSSYGGSDYGNGFGGFGSYSQHQSSYGPMKSGGGGGGGGSSWGGRSNSGPYRGGYGGGGGYGGSSF | -1.439 |  | 3.698 | 
2 | FBL (protein, UniProt P22087 1-321, looked up) rRNA 2'-O-methyltransferase …: MKPGFSPRGGGFGGRGGFGDRGGRGGRGGFGGGRGRGGGFRGRGRGGGGGGGGGGGGGRGGGGFHSGGNRGRGRGGKRGNQSGKNVMVEPHRHEGVFICRGKEDALVTKNLVPGESVYGEKRVSISEGDDKIEYRAWNPFRSKLAAAILGGVDQIHIKPGAKVLYLGAASGTTVSHVSDIVGPDGLVYAVEFSHRSGRDLINLAKKRTNIIPVIEDARHPHKYRMLIAMVDVIFADVAQPDQTRIVALNAHTFLRNGGHFVISIKANCIDSTASAEAVFASEVKKMQQENMKPQEQLTLEPYERDHAVVVGVYRPPPKVKN | -1.367 |  | 2.48 | 
3 | GAPVD1 (protein, UniProt Q14C86 1-1478, looked up) GTPase-activating protein and …: MVKLDIHTLAHHLKQERLYVNSEKQLIQRLNADVLKTAEKLYRTAWIAKQQRINLDRLIITSAEASPAECCQHAKILEDTQFVDGYKQLGFQETAYGEFLSRLRENPRLIASSLVAGEKLNQENTQSVIYTVFTSLYGNCIMQEDESYLLQVLRYLIEFELKESDNPRRLLRRGTCAFSILFKLFSEGLFSAKLFLTATLHEPIMQLLVEDEDHLETDPNKLIERFSPSQQEKLFGEKGSDRFRQKVQEMVESNEAKLVALVNKFIGYLKQNTYCFPHSLRWIVSQMYKTLSCVDRLEVGEVRAMCTDLLLACFICPAVVNPEQYGIISDAPINEVARFNLMQVGRLLQQLAMTGSEEGDPRTKSSLGKFDKSCVAAFLDVVIGGRAVETPPLSSVNLLEGLSRTVVYITYSQLITLVNFMKSVMSGDQLREDRMALDNLLANLPPAKPGKSSSLEMTPYNTPQLSPATTPANKKNRLPIATRSRSRTNMLMDLHMDHEGSSQETIQEVQPEEVLVISLGTGPQLTPGMMSENEVLNMQLSDGGQGDVPVDENKLHGKPDKTLRFSLCSDNLEGISEGPSNRSNSVSSLDLEGESVSELGAGPSGSNGVEALQLLEHEQATTQDNLDDKLRKFEIRDMMGLTDDRDISETVSETWSTDVLGSDFDPNIDEDRLQEIAGAAAENMLGSLLCLPGSGSVLLDPCTGSTISETTSEAWSVEVLPSDSEAPDLKQEERLQELESCSGLGSTSDDTDVREVSSRPSTPGLSVVSGISATSEDIPNKIEDLRSECSSDFGGKDSVTSPDMDEITHGAHQLTSPPSQSESLLAMFDPLSSHEGASAVVRPKVHYARPSHPPPDPPILEGAVGGNEARLPNFGSHVLTPAEMEAFKQRHSYPERLVRSRSSDIVSSVRRPMSDPSWNRRPGNEERELPPAAAIGATSLVAAPHSSSSSPSKDSSRGETEERKDSDDEKSDRNRPWWRKRFVSAMPKAPIPFRKKEKQEKDKDDLGPDRFSTLTDDPSPRLSAQAQVAEDILDKYRNAIKRTSPSDGAMANYESTGDNHDRDLSSKLLYHSDKEVMGDGESAHDSPRDEALQNISADDLPDSASQAAHPQDSAFSYRDAKKKLRLALCSADSVAFPVLTHSTRNGLPDHTDPEDNEIVCFLKVQIAEAINLQDKNLMAQLQETMRCVCRFDNRTCRKLLASIAEDYRKRAPYIAYLTRCRQGLQTTQAHLERLLQRVLRDKEVANRYFTTVCVRLLLESKEKKIREFIQDFQKLTAADDKTAQVEDFLQFLYGAMAQDVIWQNASEEQLQDAQLAIERSVMNRIFKLAFYPNQDGDILRDQVLHEHIQRLSKVVTANHRALQIPEVYLREAPWPSAQSEIRTISAYKTPRDKVQCILRMCSTIMNLLSLANEDSVPGADDFVPVLVFVLIKANPPCLLSTVQYISSFYASCLSGEESYWWMQFTAAVEFIKTIDDRK | -1.38 |  | 4.189 | 
4 | LMNB1 (protein, UniProt P20700 2-583, looked up) Lamin-B1: ATATPVPPRMGSRAGGPTTPLSPTRLSRLQEKEELRELNDRLAVYIDKVRSLETENSALQLQVTEREEVRGRELTGLKALYETELADARRALDDTARERAKLQIELGKCKAEHDQLLLNYAKKESDLNGAQIKLREYEAALNSKDAALATALGDKKSLEGDLEDLKDQIAQLEASLAAAKKQLADETLLKVDLENRCQSLTEDLEFRKSMYEEEINETRRKHETRLVEVDSGRQIEYEYKLAQALHEMREQHDAQVRLYKEELEQTYHAKLENARLSSEMNTSTVNSAREELMESRMRIESLSSQLSNLQKESRACLERIQELEDLLAKEKDNSRRMLTDKEREMAEIRDQMQQQLNDYEQLLDVKLALDMEISAYRKLLEGEEERLKLSPSPSSRVTVSRASSSRSVRTTRGKRKRVDVEESEASSSVSISHSASATGNVCIEEIDVDGKFIRLKNTSEQDQPMGGWEMIRKIGDTSVSYKYTSRYVLKAGQTVTIWAANAGVTASPPTDLIWKNQNSWGTGEDVKVILKNSQGEEVAQRSTVFKTTIPEEEEEEEEAAGVVVEEELFHQQGTPRASNRSC | -1.41 |  | 2.359 | 
5 | RIN1 (protein, UniProt Q13671 1-783, looked up) Ras and Rab interactor 1: MESPGESGAGSPGAPSPSSFTTGHLAREKPAQDPLYDVPNASGGQAGGPQRPGRVVSLRERLLLTRPVWLQLQANAAAALHMLRTEPPGTFLVRKSNTRQCQALCMRLPEASGPSFVSSHYILESPGGVSLEGSELMFPDLVQLICAYCHTRDILLLPLQLPRAIHHAATHKELEAISHLGIEFWSSSLNIKAQRGPAGGPVLPQLKARSPQELDQGTGAALCFFNPLFPGDLGPTKREKFKRSFKVRVSTETSSPLSPPAVPPPPVPVLPGAVPSQTERLPPCQLLRRESSVGYRVPAGSGPSLPPMPSLQEVDCGSPSSSEEEGVPGSRGSPATSPHLGRRRPLLRSMSAAFCSLLAPERQVGRAAAALMQDRHTAAGQLVQDLLTQVRAGPEPQELQGIRQALSRARAMLSAELGPEKLLSPKRLEHVLEKSLHCSVLKPLRPILAARLRRRLAADGSLGRLAEGLRLARAQGPGAFGSHLSLPSPVELEQVRQKLLQLLRTYSPSAQVKRLLQACKLLYMALRTQEGEGAGADEFLPLLSLVLAHCDLPELLLEAEYMSELLEPSLLTGEGGYYLTSLSASLALLSGLGQAHTLPLSPVQELRRSLSLWEQRRLPATHCFQHLLRVAYQDPSSGCTSKTLAVPPEASIATLNQLCATKFRVTQPNTFGLFLYKEQGYHRLPPGALAHRLPTTGYLVYRRAEWPETQGAVTEEEGSGQSEARSRGEEQGCQGDGDAGVKASPRDIREQSETTAEGGQGQAQEGPAQPGEPEAEGSRAAEE | -1.475 |  | 6.141 | 

Second part, led by results:

Row | Difference (log2), PP1 vs untreated [1, 2] [log2] | Difference (log2), PP1 vs untreated ([1]; log2 difference, pairwise comparison PP1 vs untreated, label-free quantification, 3 replicates each) | Molecule | Difference (log2), untreated vs GFP (GFP-14-3-3β; [3]) [log2] | Difference (log2), untreated vs GFP (GFP-14-3-3β; log2 difference, pairwise comparison untreated vs GFP, label-free quantification, 3 replicates each)
6 | -1.398 |  | NEXN (protein, UniProt Q0ZGT2 1-675, looked up) Nexilin: MNDISQKAEILLSSSKPVPKTYVPKLGKGDVKDKFEAMQRAREERNQRRSRDEKQRRKEQYIREREWNRRKQEIKEMLASDDEEDVSSKVEKAYVPKLTGTVKGRFAEMEKQRQEEQRKRTEEERKRRIEQDMLEKRKIQRELAKRAEQIEDINNTGTESASEEGDDSLLITVVPVKSYKTSGKMKKNFEDLEKEREEKERIKYEEDKRIRYEEQRPSLKEAKCLSLVMDDEIESEAKKESLSPGKLKLTFEELERQRQENRKKQAEEEARKRLEEEKRAFEEARRQMVNEDEENQDTAKIFKGYRPGKLKLSFEEMERQRREDEKRKAEEEARRRIEEEKKAFAEARRNMVVDDDSPEMYKTISQEFLTPGKLEINFEELLKQKMEEEKRRTEEERKHKLEMEKQEFEQLRQEMGEEEEENETFGLSREYEELIKLKRSGSIQAKNLKSKFEKIGQLSEKEIQKKIEEERARRRAIDLEIKEREAENFHEEDDVDVRPARKSEAPFTHKVNMKARFEQMAKAREEEEQRRIEEQKLLRMQFEQREIDAALQKKREEEEEEEGSIMNGSTAEDEEQTRSGAPWFKKPLKNTSVVDSEPVRFTVKVTGEPKPEITWWFEGEILQDGEDYQYIERGETYCLYLPETFPEDGGEYMCKAVNNKGSAASTCILTIESKN | 0.832 | 
7 | -1.4799 |  | ABLIM1 (protein, UniProt O14639 1-778, looked up) Actin-binding LIM protein 1: MPAFLGLKCLGKLCSSEKSKVTSSERTSARGSNRKRLIVEDRRVSGTSFTAHRRATITHLLYLCPKDYCPRGRVCNSVDPFVAHPQDPHHPSEKPVIHCHKCGEPCKGEVLRVQTKHFHIKCFTCKVCGCDLAQGGFFIKNGEYLCTLDYQRMYGTRCHGCGEFVEGEVVTALGKTYHPNCFACTICKRPFPPGDRVTFNGRDCLCQLCAQPMSSSPKETTFSSNCAGCGRDIKNGQALLALDKQWHLGCFKCKSCGKVLTGEYISKDGAPYCEKDYQGLFGVKCEACHQFITGKVLEAGDKHYHPSCARCSRCNQMFTEGEEMYLQGSTVWHPDCKQSTKTEEKLRPTRTSSESIYSRPGSSIPGSPGHTIYAKVDNEILDYKDLAAIPKVKAIYDIERPDLITYEPFYTSGYDDKQERQSLGESPRTLSPTPSAEGYQDVRDRMIHRSTSQGSINSPVYSRHSYTPTTSRSPQHFHRPGNEPSSGRNSPLPYRPDSRPLTPTYAQAPKHFHVPDQGINIYRKPPIYKQHAALAAQSKSSEDIIKFSKFPAAQAPDPSETPKIETDHWPGPPSFAVVGPDMKRRSSGREEDDEELLRRRQLQEEQLMKLNSGLGQLILKEEMEKESRERSSLLASRYDSPINSASHIPSSKTASLPGYGRNGLHRPVSTDFAQYNSYGDVSGGVRDYQTLPDGHMPAMRMDRGVSMPNMLEPKIFPYEMLMVTNRGRNKILREVDRTRLERHLAPEVFREIFGMSIQEFDRLPLWRRNDMKKKAKLF | 3.166 | 
8 |  | 1.5807 | PHB (protein, UniProt P35232 2-272, looked up) Prohibitin 1: AAKVFESIGKFGLALAVAGGVVNSALYNVDAGHRAVIFDRFRGVQDIVVGEGTHFLIPWVQKPIIFDCRSRPRNVPVITGSKDLQNVNITLRILFRPVASQLPRIFTSIGEDYDERVLPSITTEILKSVVARFDAGELITQRELVSRQVSDDLTERAATFGLILDDVSLTHLTFGKEFTEAVEAKQVAQQEAERARFVVEKAEQQKKAAIISAEGDSKAAELIANSLATAGDGLIELRKLEAAEDIAYQLSRSRNITYLPAGQSVLLQLPQ |  | 1.469
